Assay [1] has as its target extracellular portion of integrin αVβ3 (R&D Systems) (UniProt P06756). Briefly: ELISA; receptor (CD44v or integrin) plated on a high-binding 96-well plate, GST-OPN in solution 2 h at room temperature; 10 mM HEPES pH 7.4, 150 mM NaCl, 2 mM MnCl2, 0.05% Tween 20; detection with HRP-anti-GST; constants from double-reciprocal plots. On the technique in general: An ELISA detects its analyte on a solid surface through an enzyme-linked reagent.

Assay [2] deals with Recombinant extracellular domain of CD44 (aa21–606), His- and SUMO-tags (Lifespan Biosciences). The assay is described as above.
The target in assay [3] is truncated version of CD44v (MyBiosource). The assay is described as above.
In assay [4] the target is T1, extracellular portion of integrin α9β1 (R&D Systems) (UniProt Q13797 30-977; P05556 21-728).
T1 construct: also called α9β1 extracellular domain; source: bought: R&D Systems
Kind of assay: SPR; BIACORE 2000, CM5 chip; about 8000 RU of GST-OPN, CD44v or integrin α9β1 immobilised by amine coupling, BSA control flow cell; one protein in the flow, 50 μL/min, 120 s; 10 mM HEPES, 150 mM NaCl, pH 7.4, 0.05% Tween 20, 0.4 mM MnCl2, 25 °C. The settings on record: both partners purified. (SPR reads the build-up and loss of mass on a sensor chip optically.)

T1 sequence (Q13797 30-977, chain 1 of 2): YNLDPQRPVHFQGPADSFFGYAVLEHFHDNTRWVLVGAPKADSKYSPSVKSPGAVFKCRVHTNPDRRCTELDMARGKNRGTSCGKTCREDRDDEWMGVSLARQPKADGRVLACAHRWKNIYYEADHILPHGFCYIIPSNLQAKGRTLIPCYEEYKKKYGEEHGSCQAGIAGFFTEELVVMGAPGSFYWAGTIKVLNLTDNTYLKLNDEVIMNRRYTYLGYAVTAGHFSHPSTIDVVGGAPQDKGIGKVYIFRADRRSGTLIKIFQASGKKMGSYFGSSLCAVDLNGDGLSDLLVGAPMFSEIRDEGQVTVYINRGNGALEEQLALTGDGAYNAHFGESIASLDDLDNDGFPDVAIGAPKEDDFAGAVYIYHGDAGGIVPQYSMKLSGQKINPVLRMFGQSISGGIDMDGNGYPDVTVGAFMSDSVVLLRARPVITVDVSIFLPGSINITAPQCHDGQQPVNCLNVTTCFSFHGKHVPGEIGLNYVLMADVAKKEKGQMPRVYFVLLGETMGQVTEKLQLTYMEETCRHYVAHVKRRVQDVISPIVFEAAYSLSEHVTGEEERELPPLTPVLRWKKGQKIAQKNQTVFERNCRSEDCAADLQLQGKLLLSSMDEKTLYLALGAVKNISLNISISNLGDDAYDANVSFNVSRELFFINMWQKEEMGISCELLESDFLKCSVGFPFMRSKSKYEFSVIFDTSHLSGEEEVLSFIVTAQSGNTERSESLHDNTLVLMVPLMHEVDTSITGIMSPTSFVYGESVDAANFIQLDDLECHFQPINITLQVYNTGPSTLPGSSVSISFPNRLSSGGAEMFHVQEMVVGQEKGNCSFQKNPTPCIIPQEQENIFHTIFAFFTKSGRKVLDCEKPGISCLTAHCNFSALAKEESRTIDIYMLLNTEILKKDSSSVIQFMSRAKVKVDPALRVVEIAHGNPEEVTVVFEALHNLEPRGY
T1 sequence (P05556 21-728, chain 2 of 2): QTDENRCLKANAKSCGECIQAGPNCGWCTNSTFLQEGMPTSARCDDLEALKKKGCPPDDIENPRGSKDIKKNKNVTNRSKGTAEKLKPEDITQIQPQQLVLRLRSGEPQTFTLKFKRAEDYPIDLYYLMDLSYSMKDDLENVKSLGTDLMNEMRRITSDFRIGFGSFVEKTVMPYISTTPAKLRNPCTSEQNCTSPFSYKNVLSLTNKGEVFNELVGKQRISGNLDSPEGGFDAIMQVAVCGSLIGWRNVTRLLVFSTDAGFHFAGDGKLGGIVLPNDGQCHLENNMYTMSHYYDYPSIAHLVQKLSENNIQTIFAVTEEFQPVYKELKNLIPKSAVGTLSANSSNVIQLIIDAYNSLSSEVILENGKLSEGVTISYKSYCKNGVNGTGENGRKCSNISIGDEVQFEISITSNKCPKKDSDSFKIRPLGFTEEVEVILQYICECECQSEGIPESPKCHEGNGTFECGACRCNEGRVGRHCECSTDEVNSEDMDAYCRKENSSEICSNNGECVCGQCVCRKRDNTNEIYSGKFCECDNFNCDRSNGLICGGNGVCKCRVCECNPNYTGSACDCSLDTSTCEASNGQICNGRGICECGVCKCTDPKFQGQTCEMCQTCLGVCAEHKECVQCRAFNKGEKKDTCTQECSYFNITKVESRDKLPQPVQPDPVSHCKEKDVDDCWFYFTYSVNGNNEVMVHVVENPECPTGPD
Sequence of truncated version of CD44v (MyBiosource) (P16070 21-742): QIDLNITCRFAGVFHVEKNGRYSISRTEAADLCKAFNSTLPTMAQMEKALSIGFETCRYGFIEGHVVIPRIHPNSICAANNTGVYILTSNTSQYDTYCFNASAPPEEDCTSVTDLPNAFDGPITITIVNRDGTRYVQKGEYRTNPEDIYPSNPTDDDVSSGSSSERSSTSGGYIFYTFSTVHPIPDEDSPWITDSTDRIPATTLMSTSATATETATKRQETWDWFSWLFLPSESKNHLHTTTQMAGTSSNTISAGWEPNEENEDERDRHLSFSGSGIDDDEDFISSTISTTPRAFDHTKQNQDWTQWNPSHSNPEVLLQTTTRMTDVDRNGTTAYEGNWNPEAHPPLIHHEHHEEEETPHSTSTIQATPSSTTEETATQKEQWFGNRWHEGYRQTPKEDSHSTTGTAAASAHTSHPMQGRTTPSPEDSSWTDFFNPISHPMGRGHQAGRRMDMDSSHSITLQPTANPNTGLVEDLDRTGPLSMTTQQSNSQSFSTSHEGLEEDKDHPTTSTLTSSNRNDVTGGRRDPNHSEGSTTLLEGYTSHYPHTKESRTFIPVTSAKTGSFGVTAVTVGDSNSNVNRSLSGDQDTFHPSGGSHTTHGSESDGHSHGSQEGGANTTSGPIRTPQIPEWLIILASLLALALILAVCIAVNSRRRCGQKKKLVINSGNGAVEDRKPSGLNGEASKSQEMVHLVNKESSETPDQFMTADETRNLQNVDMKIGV

In the case of “GST-OPNc (from UniProt P10451-3 17-287) (ligand)”, the half-maximal binding concentration (OPN titrated 7.8–500 ng, aVb3 200 ng, taken from the rows above) in assay [1] was found to be 314 ng.

On to GST-OPNb (ligand), for which the half-maximal binding concentration (OPN titrated 7.8–500 ng, aVb3 200 ng, taken from the row above) in assay [1] stood at 502 ng.

“Bacterial recombinant GST-OPNa (after deletion of the signal sequence) (from UniProt P10451-1 17-314) (ligand)”: in assay [2], the half-maximal binding concentration (CD44 titrated 0–1000 ng, OPN 125 ng) was 95.5 ng; the half-maximal binding concentration (CD44 titrated 0–1000 ng, OPN 250 ng) was found to be 60.9 ng; the half-maximal binding concentration (CD44 titrated 0–1000 ng, OPN 500 ng) amounted to 107 ng; the half-maximal binding concentration (CD44 titrated 0–1000 ng, OPN 1000 ng) came to 151 ng. Besides, in assay [2], the half-maximal binding concentration (CD44 titrated 0–1000 ng, OPN 2000 ng) is 123 ng; the half-maximal binding concentration (CD44 titrated 0–1000 ng, OPN 4000 ng) worked out at 138 ng; the half-maximal binding concentration (OPN titrated 125–500 ng, CD44 65 ng) was found to be 0.77 ng; the half-maximal binding concentration (OPN titrated 125–500 ng, CD44 125 ng) is 8.09 ng. Besides, in assay [2], the half-maximal binding concentration (OPN titrated 125–500 ng, CD44 250 ng) stood at 40.5 ng; the half-maximal binding concentration (OPN titrated 125–500 ng, CD44 500 ng) was found to be 50.8 ng; the half-maximal binding concentration (OPN titrated 125–500 ng, CD44 1000 ng) turned out to be 60.3 ng. For the same molecule, the fold lower affinity than for LSBio CD44v in assay [3] amounted to 8 fold.

B1: extracellular portion of integrin αVβ3 (R&D Systems) (receptor)
chain 1: FNLDVDSPAEYSGPEGSYFGFAVDFFVPSASSRMFLLVGAPKANTTQPGIVEGGQVLKCDWSSTRRCQPIEFDATGNRDYAKDDPLEFKSHQWFGASVRSKQDKILACAPLYHWRTEMKQEREPVGTCFLQDGTKTVEYAPCRSQDIDADGQGFCQGGFSIDFTKADRVLLGGPGSFYWQGQLISDQVAEIVSKYDPNVYSIKYNNQLATRTAQAIFDDSYLGYSVAVGDFNGDGIDDFVSGVPRAARTLGMVYIYDGKNMSSLYNFTGEQMAAYFGFSVAATDINGDDYADVFIGAPLFMDRGSDGKLQEVGQVSVSLQRASGDFQTTKLNGFEVFARFGSAIAPLGDLDQDGFNDIAIAAPYGGEDKKGIVYIFNGRSTGLNAVPSQILEGQWAARSMPPSFGYSMKGATDIDKNGYPDLIVGAFGVDRAILYRARPVITVNAGLEVYPSILNQDNKTCSLPGTALKVSCFNVRFCLKADGKGVLPRKLNFQVELLLDKLKQKGAIRRALFLYSRSPSHSKNMTISRGGLMQCEELIAYLRDESEFRDKLTPITIFMEYRLDYRTAADTTGLQPILNQFTPANISRQAHILLDCGEDNVCKPKLEVSVDSDQKKIYIGDDNPLTLIVKAQNQGEGAYEAELIVSIPLQADFIGVVRNNEALARLSCAFKTENQTRQVVCDLGNPMKAGTQLLAGLRFSVHQQSEMDTSVKFDLQIQSSNLFDKVSPVVSHKVDLAVLAAVEIRGVSSPDHVFLPIPNWEHKENPETEEDVGPVVQHIYELRNNGPSSFSKAMLHLQWPYKYNNNTLLYILHYDIDGPMNCTSDMEINPLRIKISSLQTTEKNDTVAGQGERDHLITKRDLALSEGDIHTLGCGVAQCLKIVCQVGRLDRGKSAILYVKSLLWTETFMNKENQNHSYSLKSSASFNVIEFPYKNLPIEDITNSTLVTTNVTWGIQPAPMPV
chain 2: GPNICTTRGVSSCQQCLAVSPMCAWCSDEALPLGSPRCDLKENLLKDNCAPESIEFPVSEARVLEDRPLSDKGSGDSSQVTQVSPQRIALRLRPDDSKNFSIQVRQVEDYPVDIYYLMDLSYSMKDDLWSIQNLGTKLATQMRKLTSNLRIGFGAFVDKPVSPYMYISPPEALENPCYDMKTTCLPMFGYKHVLTLTDQVTRFNEEVKKQSVSRNRDAPEGGFDAIMQATVCDEKIGWRNDASHLLVFTTDAKTHIALDGRLAGIVQPNDGQCHVGSDNHYSASTTMDYPSLGLMTEKLSQKNINLIFAVTENVVNLYQNYSELIPGTTVGVLSMDSSNVLQLIVDAYGKIRSKVELEVRDLPEELSLSFNATCLNNEVIPGLKSCMGLKIGDTVSFSIEAKVRGCPQEKEKSFTIKPVGFKDSLIVQVTFDCDCACQAQAEPNSHRCNNGNGTFECGVCRCGPGWLGSQCECSEEDYRPSQQDECSPREGQPVCSQRGECLCGQCVCHSSDFGKITGKYCECDDFSCVRYKGEMCSGHGQCSCGDCLCDSDWTGYYCNCTTRTDTCMSSNGLLCSGRGKCECGSCVCIQPGSYGDTCEKCPTCPDACTFKKECVECKKFDRGALHDENTCNRYCRDEIESVKELKDTGKDAVNCTYKNEDDCVVRFQYYEDSSGKSILYVVEEPECPKGPD
notes: also called aVb3; source: bought: R&D Systems
B1: the binding result in assay [4] is listed as “binds”.

The values are drawn from PMC8228714, “Structural Constraint of Osteopontin Facilitates Efficient Binding to CD44” (Biomolecules, 2021).
